This is an account of results in PMC3123307, “Identification of the Allosteric Regulatory Site of Insulysin” (PLoS ONE, 2011).

The target of data set [1] is Native rat insulin degrading enzyme (rIDE, insulysin), wild type, residues 42-1019 (rat) (UniProt P35559).
Data set [2] concerns the molecule itself. The data set is described as follows: crystal structure; wild type rIDE and rIDE-E111F, no substrate peptide added; enzyme at 8 mg/ml in 50 mM Tris 7.4, 1 mM DTT, 100 mM NaCl; sitting drop, 100 mM sodium citrate pH 6.5, 100 mM ammonium acetate, 20% PEG 4000, 20 or 22°C; space group C2, one molecule per asymmetric unit.

In turn, “bradykinin (from UniProt P01042 381-389) (peptide)” gave an enzyme activity: activation by bradykinin of hydrolysis of 10 µM Abz-…-EDDnp in data set [1] of 4 fold.

B1: Native rat insulin degrading enzyme (rIDE, insulysin), wild type, residues 42-1019 (enzyme, UniProt P35559 42-1019, looked up)
chain: MNNPAIQRIEDHIVKSPEDKREYRGLELANGIKVLLISDPTTDKSSAALDVHIGSLSDPPNIPGLSHFCEHMLFLGTKKYPKENEYSQFLSEHAGSSNAFTSGEHTNYYFDVSHEHLEGALDRFAQFFLCPLFDASCKDREVNAVDSEHEKNVMNDAWRLFQLEKATGNPKHPFSKFGTGNKYTLETRPNQEGIDVREELLKFHSTYYSSNLMAICVLGRESLDDLTNLVVKLFSEVENKNVPLPEFPEHPFQEEHLKQLYKIVPIKDIRNLYVTFPIPDLQQYYKSNPGHYLGHLIGHEGPGSLLSELKSKGWVNTLVGGQKEGARGFMFFIINVDLTEEGLLHVEDIILHMFQYIQKLRAEGPQEWVFQECKDLNAVAFRFKDKERPRGYTSKIAGKLHYYPLNGVLTAEYLLEEFRPDLIDMVLDKLRPENVRVAIVSKSFEGKTDRTEQWYGTQYKQEAIPEDVIQKWQNADLNGKFKLPTKNEFIPTNFEILALEKDATPYPALIKDTAMSKLWFKQDDKFFLPKACLNFEFFSPFAYVDPLHCNMAYLYLELLKDSLNEYAYAAELAGLSYDLQNTIYGMYLSVKGYNDKQPILLKKITEKMATFEIDKKRFEIIKEAYMRSLNNFRAEQPHQHAMYYLRLLMTEVAWTKDELKEALDDVTLPRLKAFIPQLLSRLHIEALLHGNITKQAALGVMQMVEDTLIEHAHTKPLLPSQLVRYREVQLPDRGWFVYQRRNEVHNNCGIEIYYQTDMQSTSENMFLELFCQIISEPCFNTLRTKEQLGYIVFSGPRRANGIQGLRFIIQSEKPPHYLESRVEAFLITMEKAIEDMTEEAFQKHIQALAIRRLDKPKKLSAECAKYWGEIISQQYNYDRDNIEVAYLKTLSKDDIIKFYKEMLAVDAPRRHKVSVHVLAREMDSCPVVGEFPSQNDINLSEAPPLPQPEVIHNMTEFKRGLPLFPLVKPHINFMAAKL
notes: Insulin-degrading enzyme (insulysin, EC 3.4.24.56), rat; begins at methionine 42 and extends through the native C-terminal residue leucine 1019 (the same paragraph also prints 'residues 42-1016'); In the crystal there is one molecule per asymmetric unit, and the dimer is formed by crystal symmetry; Expressed from pFastBac HTb; The model contains residues 42-963 and 980-1011; also called wild type …
For the molecule B1, the binding result in data set [2] is reported as “binds”.

B2: rat insulin degrading enzyme E111F mutant (rIDE-E111F), residues 42-1019 (enzyme, UniProt P35559 42-1019, looked up)
chain: MNNPAIQRIEDHIVKSPEDKREYRGLELANGIKVLLISDPTTDKSSAALDVHIGSLSDPPNIPGLSHFCFHMLFLGTKKYPKENEYSQFLSEHAGSSNAFTSGEHTNYYFDVSHEHLEGALDRFAQFFLCPLFDASCKDREVNAVDSEHEKNVMNDAWRLFQLEKATGNPKHPFSKFGTGNKYTLETRPNQEGIDVREELLKFHSTYYSSNLMAICVLGRESLDDLTNLVVKLFSEVENKNVPLPEFPEHPFQEEHLKQLYKIVPIKDIRNLYVTFPIPDLQQYYKSNPGHYLGHLIGHEGPGSLLSELKSKGWVNTLVGGQKEGARGFMFFIINVDLTEEGLLHVEDIILHMFQYIQKLRAEGPQEWVFQECKDLNAVAFRFKDKERPRGYTSKIAGKLHYYPLNGVLTAEYLLEEFRPDLIDMVLDKLRPENVRVAIVSKSFEGKTDRTEQWYGTQYKQEAIPEDVIQKWQNADLNGKFKLPTKNEFIPTNFEILALEKDATPYPALIKDTAMSKLWFKQDDKFFLPKACLNFEFFSPFAYVDPLHCNMAYLYLELLKDSLNEYAYAAELAGLSYDLQNTIYGMYLSVKGYNDKQPILLKKITEKMATFEIDKKRFEIIKEAYMRSLNNFRAEQPHQHAMYYLRLLMTEVAWTKDELKEALDDVTLPRLKAFIPQLLSRLHIEALLHGNITKQAALGVMQMVEDTLIEHAHTKPLLPSQLVRYREVQLPDRGWFVYQRRNEVHNNCGIEIYYQTDMQSTSENMFLELFCQIISEPCFNTLRTKEQLGYIVFSGPRRANGIQGLRFIIQSEKPPHYLESRVEAFLITMEKAIEDMTEEAFQKHIQALAIRRLDKPKKLSAECAKYWGEIISQQYNYDRDNIEVAYLKTLSKDDIIKFYKEMLAVDAPRRHKVSVHVLAREMDSCPVVGEFPSQNDINLSEAPPLPQPEVIHNMTEFKRGLPLFPLVKPHINFMAAKL
notes: Insulin-degrading enzyme (insulysin), rat; begins at methionine 42 and extends through leucine 1019; catalytically compromised E111F mutant; No zinc ion in the crystal structure; The model contains residues 42-965 and 978-1011; also called E111F-rIDE; E111F IDE mutant; not shown: His6, N-terminal, cleaved
Consider B2, for which, in data set [2], the binding result is listed as “binds”.
